US20240150810

Target: AMC-Ubiquitin, P62979

B1: recombinant USP22 (protein)
chain: MVSRPEPEGEAMDAELAVAPPGCSHLGSFKVDNWKQNLRAIYQCFVWSGTAEARKRKAKSCICHVCGVHLNRLHSCLYCVFFGCFTKKHIHEHAKAKRHNLAIDLMYGGIYCFLCQDYIYDKDMEIIAKEEQRKAWKMQGVGEKFSTWEPTKRELELLKHNPKRRKITSNCTIGLRGLINLGNTCFMNCIVQALTHTPLLRDFFLSDRHRCEMQSPSSCLVCEMSSLFQEFYSGHRSPHIPYKLLHLVWTHARHLAGYEQQDAHEFLIAALDVLHRHCKGDDNGKKANNPNHCNCIIDQIFTGGLQSDVTCQVCHGVSTTIDPFWDISLDLPGSSTPFWPLSPGSEGNVVNGESHVSGTTTLTDCLRRFTRPEHLGSSAKIKCSGCHSYQESTKQLTMKKLPIVACFHLKRFEHSAKLRRKITTYVSFPLELDMTPFMASSKESRMNGQYQQPTDSLNNDNKYSLFAVVNHQGTLESGHYTSFIRQHKDQWFKCDDAIITKASIKDVLDSEGYLLFYHKQFLEYE
Question: Which “fluorescence signal generated by cleavage of the fluorogenic substrate AMC-Ubiquitin (in vitro deubiquitination assay, time course)” value does the source give for B1 here?
Answer: Its value is “fluorescence resulting from the liberation of AMC increased over time in a USP22-dependent manner”.
